Paper PMC13033339

Legend:
Assay in all cases: cryo-EM structure; genome-packed Douge virions purified from M. smegmatis lysate (PEG, CsCl gradient), vitrified at 4 °C; capsid, connector-vertex, tail tube, baseplate and central fiber reconstructed separately (2.18-4.26 Å) and joined in a composite map; the proteins stood in the assembled virion
[1] = molecular target: adaptor protein, gp9 of mycobacteriophage Douge (mycobacteriophage Douge)
[2] = molecular target: baseplate hub protein (BHP), gp18 of mycobacteriophage Douge (mycobacteriophage Douge)
[3] = molecular target: capsid cement protein (CCP), gp113 of mycobacteriophage Douge (mycobacteriophage Douge)
[4] = molecular target: central fiber protein (CFP), gp20 of mycobacteriophage Douge (mycobacteriophage Douge)
[5] = molecular target: distal tail protein (DTP), gp17 of mycobacteriophage Douge (mycobacteriophage Douge)
[6] = molecular target: portal protein, gp5 of mycobacteriophage Douge (mycobacteriophage Douge)
[7] = molecular target: stopper protein, gp10 of mycobacteriophage Douge (mycobacteriophage Douge)
[8] = molecular target: tail tube protein (TTP), gp13 of mycobacteriophage Douge (mycobacteriophage Douge)
[9] = molecular target: tape measure protein (TMP), gp16 of mycobacteriophage Douge (mycobacteriophage Douge)
[10] = molecular target: terminator protein, gp12 of mycobacteriophage Douge (mycobacteriophage Douge)

adaptor protein, gp9 of mycobacteriophage Douge (natural protein)
stoichiometry N [1]: 12

baseplate hub protein (BHP), gp18 of mycobacteriophage Douge (natural protein)
stoichiometry N [2]: 3

capsid cement protein (CCP), gp113 of mycobacteriophage Douge (natural protein)
stoichiometry N [3]: 2

central fiber protein (CFP), gp20 of mycobacteriophage Douge (natural protein)
stoichiometry N [4]: 3

distal tail protein (DTP), gp17 of mycobacteriophage Douge (natural protein)
stoichiometry N [5]: 6

portal protein, gp5 of mycobacteriophage Douge (natural protein)
stoichiometry N [6]: 12

stopper protein, gp10 of mycobacteriophage Douge (natural protein)
stoichiometry N [7]: 6

tail tube protein (TTP), gp13 of mycobacteriophage Douge (natural protein)
stoichiometry N [8]: 6

tape measure protein (TMP), gp16 of mycobacteriophage Douge (natural protein)
stoichiometry N [9]: 3

terminator protein, gp12 of mycobacteriophage Douge (natural protein)
stoichiometry N [10]: 6
